Target: H-2K^b class I-determinants expressed on LM fibroblasts transduced with pBR327H-2K^b (mouse) (UniProt P01901)
Test: flow cytometry staining of LM cells transduced with pBR327H-2K^b, control staining

Sequence of UniProt P01901 (P01901 22-369): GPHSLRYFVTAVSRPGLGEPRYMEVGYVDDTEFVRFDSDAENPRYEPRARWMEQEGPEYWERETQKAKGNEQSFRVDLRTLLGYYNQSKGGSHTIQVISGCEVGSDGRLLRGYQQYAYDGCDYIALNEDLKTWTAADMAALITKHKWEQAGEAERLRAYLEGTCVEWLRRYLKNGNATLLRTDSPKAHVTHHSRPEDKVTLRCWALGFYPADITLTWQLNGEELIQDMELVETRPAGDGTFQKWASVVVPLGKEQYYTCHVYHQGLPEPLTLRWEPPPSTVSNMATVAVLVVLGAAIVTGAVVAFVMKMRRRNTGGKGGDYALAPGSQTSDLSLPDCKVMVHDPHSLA

isotope control sera (antibody) was tested, and the mean fluorescence index (MFI) was 0.3.

Source: patent US20110014241A1
